Assay results published in the supplement of paper PMC10266784.

B1: library; numbered along this chain (parent)
chain: MAAAAAAAAEQQSSNGPVKKSMREKAVERRSVNKEHNSNFKAGYIPIDEDRLHKTGLRGRKGNLAICVIILLFILAVINLIITLVIWAVIRIGPNGCDSMEFHESGLLRFKQVSDMGVIHPLYKSTVGGRRNENLVITGNNQPIVFQQGTTKLSVENNKTSITSDIGMQFFDPRTQNILFSTDYETHEFHLPSGVKSLNVQKASTERITSNATSDLNIKVDGRAIVRGNEGVFIMGKTIEFHMGGNMELKAENSIILNGSVMVSTTRLPSSSSGDQLGSGDWVRYKLCMCADGTLFKVQVTSQNMGCQISDNPCGNTH

Variants of: B1
Test: SGCB cell-surface expression functional score (HA stain, bin4 vs bin1, normalised to synonymous) (log10 ratio); higher = more cell-surface SGCB (functional)
Experimental: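 Deep mutational scan of full-length human SGCB (YFP-SGCB-HA, NNN codon sublibraries A-F) delivered by lentivirus at low MOI into ADG-HEK293 cells stably expressing SGCA, SGCD and SGCG. YFP-positive cells were stained for surface HA on unpermeabilized cells and FACS-sorted into bins. The functional score is log10(frequency in high bin 4 / frequency in low bin 1), normalised per chunk so that synonymous variants have mean 0 and SD 0.5. Scores are the median over codons and over duplicate biological replicates; scores below -0.5 are called non-functional. Scale: negative means deleterious.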

SGCB cell-surface expression functional score (log10) of substitutions, site by site:
S105: L -0.66, V -0.62, D 0.04, Y 0.11, I -0.75, G -0.15, K -0.5, Q -0.11, M -0.33, H 0, E -0.29, R -0.4, F -0.75, N -0.63, C -0.21, W 0.26, P -1.03, T -0.09, A -0.09
F110: C -1.22, D -1.65, E -1.42, A -1.33
L107: I 0.27, C 0.24, F -0.29, D -0.74, S -0.46, R -0.36, V -0.21, K -0.53, N -0.13, Y -0.27, A -0.67, P -0.47, E -1.14, H -0.67, Q 0, W -0.39, G -0.26, M 0.24, T -0.34
P94: Y 0.29, C -0.07, S -0.11, W 0.26, T -0.07, A 0.03, K 0.29, F 0.24, D -1.08, M 0.27, I -0.61, H 0.01, R -0.65, L -0.17, E -0.29, V -0.24, Q 0.21, G -0.25, N -0.88
H103: V 0.29, Q 0.36, M -0.23, K -0.02, I -0.36, C -0.1, Y -0.3, T 0.65, D 0, A 0.32, F -0.14, P -0.42, E -0.33, L 0.33, R 0.14, N 0.13, W 0.06, S 0.06, G 0.07
R109: W 0.09, K -0.59, P -1.41, C -0.5, S -0.09, A -0.33, M -0.41, I -0.04, D -0.93, F -0.2, L -0.1, E -0.02, T 0.26, Y -0.17, V 0.1, N -1.22, Q -0.31, H -0.61, G -0.81
M100: D -1.82, T -1.55, K -2.02, F -0.46, E -1.92, Q -1.26, G -1.04, V -0.03, H -1.39, R -1.19, C -1.81, P -2.03, A -1.33, S -2.02, Y -2.14, N -2.37, W -1.82, I -0.14
F102: Y -1.16, E -1.93, L -0.5, K -1.02, D -0.88, G -0.51, Q -1.39, C -1.3, H 0.01, S -1.18, V -1.57, P -1.4, I -1.26, M -0.45, R -1.14, W -0.12, T -1.16, A -1.01, N -1.53
E101: N -1.22, P -1.78, W -1.04, Q -0.15, C -1.14, I -0.3, L -0.35, H -1.14, S -0.39, M -0.63, T -0.54, R -0.59, Y -0.43, G -0.26, K -0.77, F -0.8, V -0.43, A -0.15, D -0.49
G96: D -2.13, R -1.51, L -2.08, M -1.68, N -2.04, S -1.81, P -1.62, V -1.95, Q -2.14, K -2.21, Y -2.29, W -0.61, H -1.77, C -1.66, I -1.54, A -1.24, E -1.89, F -2.5, T -1.72
E104: W -0.09, S 0.39, Y 0.03, R 0.26, I 0.01, N -0.11, K 0.13, H 0.28, M 0.11, V 0, G -0.1, T 0.51, L -0.18, Q 0.18, F -0.24, P 0.47, C 0.35, D 0.17, A 0.22
G93: V -1.79, Y -1.86, F -1.18, P -1.64, H 0.32, M -1.49, N -0.14, A -0.97, I -2.15, D -0.19, T 0.23, E -1.2, W -0.45, S -0.25, L -1.84, Q -0.8, C -1.43, R -0.4, K -0.15
D98: Y -0.66, A 0.32, T 0.06, R -0.16, N -0.3, S 0.3, K -0.4, P -0.12, L 0.1, M 0.01, F -0.64, H 0.4, W -0.73, C -0.07, G -0.2, I -1, E -0.21, V -0.14, Q -0.02
C97: A -0.14, Y -1.89, K -1.3, W -1.46, F -1.5, D -2.33, N -1.16, L 0.37, T -0.03, P -0.47, I 0.31, E -1.87, H -2.29, M -0.29, Q -1.14, V 0.16, G -1.91, S -0.18, R -1.75
S99: T -0.4, N -0.77, M 0.21, I -0.54, A -0.01, D -1.16, H -0.65, K -1.57, L 0.18, E -1.96, G -0.07, V 0.15, R -1.61, P -0.38, F 0.86, C -0.72, Q -2.34, Y 0.12, W -0.35
I92: Y -2.16, W -2.43, V -0.31, R -1.46, T -1.03, S -2.23, Q -1.97, P -1.96
N95: C -0.17, E 0.05, R -0.09, K 0.16, G 0.21, Q -0.12, A 0.01, F 0.3, S 0.16, D -0.24, M 0.68, I -0.83, T -0.1, Y 0.15, V -0.38, H -1.18, L -0.06, P -1.26, W 0.34
L108: V -0.08, I 0.03, Q -1.27, D -1.53, F -1.87, K -1.85, R -1.09, T 0, C 0.01, Y -1.74, N -2.59, E -1.58, P -1.13, W -0.215, S -0.5, H -0.95, G -0.9, M 0.07, A -0.07
G106: T -0.86, K -0.63, M -0.94, F -1.86, I -1.82, Y -1.15, V -1.47, P -1.85, R -0.35, N -0.38, Q -1.48, C -1.9, D -0.65, A -0.24, L -1.62, W -0.87, H -0.43, E -0.58, S -0.78
